Source: US20200223889A1 (Novo Nordisk, published 2020)
Positions of bridges follow the written chain, without caps; N, C: chain ends. Non-standard residues stand in square brackets, D forms with d. Lys(CH2CO2H)2 = N[C@@H](CCCCN(CC(=O)O)CC(=O)O)C(=O)O; Phe(3,4-(OMe)2) = COc1ccc(C[C@H](N)C(=O)O)cc1OC; 2Nal = N[C@@H](Cc1ccc2ccccc2c1)C(=O)O; Ser(ΨH,HPro) = O=C(O)[C@@H]1COCN1; Hyp = O=C(O)[C@@H]1C[C@@H](O)CN1; Cit = NC(=O)NCCC[C@H](N)C(=O)O; Pen = CC(C)(S)[C@H](N)C(=O)O; Pip = O=C(O)[C@@H]1CCCCN1; Thz = O=C(O)[C@@H]1CSCN1; Aze = O=C(O)[C@@H]1CCN1; Sar = CNCC(=O)O

B1: Chem. 9 (peptide)
peptide: CXHFRWCXHFRW
modifications: Aib 2, 8; D-Phe 4, 10; disulphide Cys1-Cys7; head-to-tail amide Cys1-Trp12
notes: also called c[c[Cys-Aib-His-D-Phe-Arg-Trp-Cys]-Aib-His-D-Phe-Arg-Trp]
B2: Chem. 83 (peptide)
peptide: cyclo(C[Pip]H[dF]HWCAKKKW)
modifications: disulfide 1-7
notes: also called c[c[Cys-PIP-His-D-Phe-His-Trp-Cys]-Ala-Lys-Lys-Lys-Trp]
B3: Chem. 98 (peptide)
peptide: cyclo(C[dP]H[dF]HWCAKKKW)
modifications: disulfide 1-7
notes: also called c[c[Cys-D-Pro-His-D-Phe-His-Trp-Cys]-Ala-Lys-Lys-Lys-Trp]
B4: Chem. 79 (peptide)
peptide: cyclo(CAH[dF]R[2Nal]CAKKKW)
modifications: disulfide 1-7
SMILES: C[C@@H]1NC(=O)[C@@H]2CSSC[C@H](NC(=O)[C@H](Cc3ccc4ccccc4c3)NC(=O)[C@H](CCCNC(=N)N)NC(=O)[C@@H](Cc3ccccc3)NC(=O)[C@H](Cc3c[nH]cn3)NC1=O)C(=O)N[C@@H](C)C(=O)N[C@@H](CCCCN)C(=O)N[C@@H](CCCCN)C(=O)N[C@@H](CCCCN)C(=O)N[C@@H](Cc1c[nH]c3ccccc13)C(=O)N2
notes: also called c[c[Cys-Ala-His-D-Phe-Arg-2-Nal-Cys]-Ala-Lys-Lys-Lys-Trp]
B5: Chem. 93 (peptide)
peptide: cyclo(CPH[dF]HW[Pen]AKKKR)
modifications: disulfide 1-7
SMILES: C[C@@H]1NC(=O)[C@H]2NC(=O)[C@H](Cc3c[nH]c4ccccc34)NC(=O)[C@H](Cc3c[nH]cn3)NC(=O)[C@@H](Cc3ccccc3)NC(=O)[C@H](Cc3c[nH]cn3)NC(=O)[C@@H]3CCCN3C(=O)[C@H](CSSC2(C)C)NC(=O)[C@H](CCCNC(=N)N)NC(=O)[C@H](CCCCN)NC(=O)[C@H](CCCCN)NC(=O)[C@H](CCCCN)NC1=O
notes: also called c[c[Cys-Pro-His-D-Phe-His-Trp-Pen]-Ala-Lys-Lys-Lys-Arg]
B6: Chem. 104 (peptide)
peptide: cyclo(C[Thz]H[dF]HWCAA[Lys(CH2CO2H)2]AW)
modifications: disulfide 1-7
SMILES: C[C@@H]1NC(=O)[C@H](C)NC(=O)[C@@H]2CSSC[C@H](NC(=O)[C@H](Cc3c[nH]c4ccccc34)NC(=O)[C@H](C)NC(=O)[C@H](CCCCN(CC(=O)O)CC(=O)O)NC1=O)C(=O)N1CSC[C@H]1C(=O)N[C@@H](Cc1c[nH]cn1)C(=O)N[C@H](Cc1ccccc1)C(=O)N[C@@H](Cc1c[nH]cn1)C(=O)N[C@@H](Cc1c[nH]c3ccccc13)C(=O)N2
notes: also called c[c[Cys-THAZ-His-D-Phe-His-Trp-Cys]-Ala-Ala-Lys(CH2COOH)2-Ala-Trp]
B7: Chem. 70 (peptide)
peptide: cyclo(C[Hyp]H[dF]HWCAKKKW)
modifications: disulfide 1-7
SMILES: C[C@@H]1NC(=O)[C@@H]2CSSC[C@H](NC(=O)[C@H](Cc3c[nH]c4ccccc34)NC(=O)[C@H](CCCCN)NC(=O)[C@H](CCCCN)NC(=O)[C@H](CCCCN)NC1=O)C(=O)N1C[C@H](O)C[C@H]1C(=O)N[C@@H](Cc1c[nH]cn1)C(=O)N[C@H](Cc1ccccc1)C(=O)N[C@@H](Cc1c[nH]cn1)C(=O)N[C@@H](Cc1c[nH]c3ccccc13)C(=O)N2
notes: also called c[c[Cys-Hyp-His-D-Phe-His-Trp-Cys]-Ala-Lys-Lys-Lys-Trp]
B8: Chem. 92 (peptide)
peptide: cyclo([Pen]PH[dF]HWCAKKKR)
modifications: disulfide 1-7
SMILES: C[C@@H]1NC(=O)[C@@H]2CSSC(C)(C)[C@H](NC(=O)[C@H](CCCNC(=N)N)NC(=O)[C@H](CCCCN)NC(=O)[C@H](CCCCN)NC(=O)[C@H](CCCCN)NC1=O)C(=O)N1CCC[C@H]1C(=O)N[C@@H](Cc1c[nH]cn1)C(=O)N[C@H](Cc1ccccc1)C(=O)N[C@@H](Cc1c[nH]cn1)C(=O)N[C@@H](Cc1c[nH]c3ccccc13)C(=O)N2
notes: also called c[c[Pen-Pro-His-D-Phe-His-Trp-Cys]-Ala-Lys-Lys-Lys-Arg]
B9: Chem. 82 (peptide)
peptide: cyclo(C[Aze]H[dF]HWCAKKKW)
modifications: disulfide 1-7
SMILES: C[C@@H]1NC(=O)[C@@H]2CSSC[C@H](NC(=O)[C@H](Cc3c[nH]c4ccccc34)NC(=O)[C@H](CCCCN)NC(=O)[C@H](CCCCN)NC(=O)[C@H](CCCCN)NC1=O)C(=O)N1CC[C@H]1C(=O)N[C@@H](Cc1c[nH]cn1)C(=O)N[C@H](Cc1ccccc1)C(=O)N[C@@H](Cc1c[nH]cn1)C(=O)N[C@@H](Cc1c[nH]c3ccccc13)C(=O)N2
notes: also called c[c[Cys-AZE-His-D-Phe-His-Trp-Cys]-Ala-Lys-Lys-Lys-Trp]
B10: Chem. 72 (peptide)
peptide: cyclo(CPH[dF][Cit]WCAKKKR)
modifications: disulfide 1-7
SMILES: C[C@@H]1NC(=O)[C@@H]2CSSC[C@H](NC(=O)[C@H](CCCNC(=N)N)NC(=O)[C@H](CCCCN)NC(=O)[C@H](CCCCN)NC(=O)[C@H](CCCCN)NC1=O)C(=O)N1CCC[C@H]1C(=O)N[C@@H](Cc1c[nH]cn1)C(=O)N[C@H](Cc1ccccc1)C(=O)N[C@@H](CCCNC(N)=O)C(=O)N[C@@H](Cc1c[nH]c3ccccc13)C(=O)N2
notes: Printed shorthand is identical to that of Chem. 99; the drawings may differ; also called c[c[Cys-Pro-His-D-Phe-Cit-Trp-Cys]-Ala-Lys-Lys-Lys-Arg]
B11: Chem. 91 (peptide)
peptide: cyclo(C[Thz]H[dF]HWC[Thz]H[dF]HW)
modifications: disulfide 1-7
SMILES: O=C1N[C@H]2CSSC[C@H](NC(=O)[C@H](Cc3c[nH]c4ccccc34)NC(=O)[C@H](Cc3c[nH]cn3)NC(=O)[C@@H](Cc3ccccc3)NC(=O)[C@H](Cc3c[nH]cn3)NC(=O)[C@@H]3CSCN3C2=O)C(=O)N2CSC[C@H]2C(=O)N[C@@H](Cc2c[nH]cn2)C(=O)N[C@H](Cc2ccccc2)C(=O)N[C@@H](Cc2c[nH]cn2)C(=O)N[C@H]1Cc1c[nH]c2ccccc12
notes: also called c[c[Cys-THAZ-His-D-Phe-His-Trp-Cys]-THAZ-His-D-Phe-His-Trp]
B12: Chem. 73 (peptide)
peptide: cyclo(C[Sar]H[dF]HWCAKKKW)
modifications: disulfide 1-7
SMILES: C[C@@H]1NC(=O)[C@@H]2CSSC[C@H](NC(=O)[C@H](Cc3c[nH]c4ccccc34)NC(=O)[C@H](CCCCN)NC(=O)[C@H](CCCCN)NC(=O)[C@H](CCCCN)NC1=O)C(=O)N(C)CC(=O)N[C@@H](Cc1c[nH]cn1)C(=O)N[C@H](Cc1ccccc1)C(=O)N[C@@H](Cc1c[nH]cn1)C(=O)N[C@@H](Cc1c[nH]c3ccccc13)C(=O)N2
notes: also called c[c[Cys-Sar-His-D-Phe-His-Trp-Cys]-Ala-Lys-Lys-Lys-Trp]
B13: Chem. 94 (peptide)
peptide: cyclo(CPH[dF]R[Phe(3,4-(OMe)2)]CAKKKR)
modifications: disulfide 1-7
notes: also called c[c[Cys-Pro-His-D-Phe-Arg-3,4-DiMeO-Phe-Cys]-Ala-Lys-Lys-Lys-Arg]
B14: Chem. 81 (peptide)
peptide: cyclo(C[Thz]H[dF]HWCAKKKW)
modifications: disulfide 1-7
SMILES: C[C@@H]1NC(=O)[C@@H]2CSSC[C@H](NC(=O)[C@H](Cc3c[nH]c4ccccc34)NC(=O)[C@H](CCCCN)NC(=O)[C@H](CCCCN)NC(=O)[C@H](CCCCN)NC1=O)C(=O)N1CSC[C@H]1C(=O)N[C@@H](Cc1c[nH]cn1)C(=O)N[C@H](Cc1ccccc1)C(=O)N[C@@H](Cc1c[nH]cn1)C(=O)N[C@@H](Cc1c[nH]c3ccccc13)C(=O)N2
notes: also called c[c[Cys-THAZ-His-D-Phe-His-Trp-Cys]-Ala-Lys-Lys-Lys-Trp]
B15: Chem. 103 (peptide)
peptide: cyclo(C[Ser(ΨH,HPro)]H[dF]HWCAKKKW)
modifications: disulfide 1-7
SMILES: C[C@@H]1NC(=O)[C@@H]2CSSC[C@H](NC(=O)[C@H](Cc3c[nH]c4ccccc34)NC(=O)[C@H](CCCCN)NC(=O)[C@H](CCCCN)NC(=O)[C@H](CCCCN)NC1=O)C(=O)N1COC[C@H]1C(=O)N[C@@H](Cc1c[nH]cn1)C(=O)N[C@H](Cc1ccccc1)C(=O)N[C@@H](Cc1c[nH]cn1)C(=O)N[C@@H](Cc1c[nH]c3ccccc13)C(=O)N2
notes: also called c[c[Cys-OXA-His-D-Phe-His-Trp-Cys]-Ala-Lys-Lys-Lys-Trp]
B16: Chem. 105 (peptide)
peptide: cyclo(C[Thz]H[dF]HWCAEEAW)
modifications: disulfide 1-7
SMILES: C[C@@H]1NC(=O)[C@H](CCC(=O)O)NC(=O)[C@H](CCC(=O)O)NC(=O)[C@H](C)NC(=O)[C@@H]2CSSC[C@H](NC(=O)[C@H](Cc3c[nH]c4ccccc34)NC1=O)C(=O)N1CSC[C@H]1C(=O)N[C@@H](Cc1c[nH]cn1)C(=O)N[C@H](Cc1ccccc1)C(=O)N[C@@H](Cc1c[nH]cn1)C(=O)N[C@@H](Cc1c[nH]c3ccccc13)C(=O)N2
notes: also called c[c[Cys-THAZ-His-D-Phe-His-Trp-Cys]-Ala-Glu-Glu-Ala-Trp]
B17: Chem. 107 (peptide)
peptide: cyclo(C[Thz]H[dF]HWCADEAW)
modifications: disulfide 1-7
SMILES: C[C@@H]1NC(=O)[C@H](CCC(=O)O)NC(=O)[C@H](CC(=O)O)NC(=O)[C@H](C)NC(=O)[C@@H]2CSSC[C@H](NC(=O)[C@H](Cc3c[nH]c4ccccc34)NC1=O)C(=O)N1CSC[C@H]1C(=O)N[C@@H](Cc1c[nH]cn1)C(=O)N[C@H](Cc1ccccc1)C(=O)N[C@@H](Cc1c[nH]cn1)C(=O)N[C@@H](Cc1c[nH]c3ccccc13)C(=O)N2
notes: also called c[c[Cys-THAZ-His-D-Phe-His-Trp-Cys]-Ala-Asp-Glu-Ala-Trp]
B18: Chem. 106 (peptide)
peptide: cyclo(C[Thz]H[dF]HWCADDAW)
modifications: disulfide 1-7
SMILES: C[C@@H]1NC(=O)[C@H](CC(=O)O)NC(=O)[C@H](CC(=O)O)NC(=O)[C@H](C)NC(=O)[C@@H]2CSSC[C@H](NC(=O)[C@H](Cc3c[nH]c4ccccc34)NC1=O)C(=O)N1CSC[C@H]1C(=O)N[C@@H](Cc1c[nH]cn1)C(=O)N[C@H](Cc1ccccc1)C(=O)N[C@@H](Cc1c[nH]cn1)C(=O)N[C@@H](Cc1c[nH]c3ccccc13)C(=O)N2
notes: also called c[c[Cys-THAZ-His-D-Phe-His-Trp-Cys]-Ala-Asp-Asp-Ala-Trp]

target: human melanocortin 1 receptor (human, UniProt Q01726 1-317); assay: cell-based or functional assay
Sequence (Q01726 whole entry): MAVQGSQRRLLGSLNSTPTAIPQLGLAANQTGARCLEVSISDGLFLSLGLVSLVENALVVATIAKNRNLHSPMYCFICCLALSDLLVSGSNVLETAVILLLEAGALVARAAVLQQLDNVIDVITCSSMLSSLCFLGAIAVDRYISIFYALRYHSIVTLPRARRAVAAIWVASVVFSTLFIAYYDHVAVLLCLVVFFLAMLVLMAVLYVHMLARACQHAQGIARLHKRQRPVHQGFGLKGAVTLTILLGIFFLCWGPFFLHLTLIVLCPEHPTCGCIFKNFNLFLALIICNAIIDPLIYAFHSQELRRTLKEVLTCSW

Binder | MC1R cAMP EC50
B1 | 4.02 nM
B2 | > 10 nM
B3 | > 55 nM
B4 | 1.16 nM
B5 | 18.2 nM
B6 | > 100 nM
B7 | 75.7 nM
B8 | 47.1 nM
B9 | 94.3 nM
B10 | 5.86 nM
B11 | > 10 nM
B12 | > 50 nM
B13 | 113 nM
B14 | 67 nM
B15 | > 70 nM
B16 | > 100 nM
B17 | > 100 nM
B18 | > 100 nM

target: T1, human melanocortin 4 receptor (human, UniProt P32245 1-332); assay: cell-based or functional assay
T1 sequence (P32245 whole entry): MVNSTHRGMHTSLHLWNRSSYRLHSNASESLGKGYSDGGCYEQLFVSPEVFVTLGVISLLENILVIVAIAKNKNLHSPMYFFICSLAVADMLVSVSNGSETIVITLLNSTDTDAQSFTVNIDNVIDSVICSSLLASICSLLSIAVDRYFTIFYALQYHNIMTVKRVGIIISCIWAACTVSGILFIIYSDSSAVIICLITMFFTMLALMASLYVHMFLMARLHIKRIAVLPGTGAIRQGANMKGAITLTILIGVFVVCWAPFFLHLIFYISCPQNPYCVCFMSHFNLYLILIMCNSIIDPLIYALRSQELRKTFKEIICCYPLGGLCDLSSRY

Binder | MC4R cAMP EC50
B1 | 0.02 nM
B2 | 2.15 nM
B3 | 2.7 nM
B4 | 0.02 nM
B5 | 0.04 nM
B6 | 0.6 nM
B7 | 0.38 nM
B8 | 0.13 nM
B9 | 0.53 nM
B10 | 0.03 nM
B11 | 0.71 nM
B12 | 1.26 nM
B13 | 4.38 nM
B14 | 0.07 nM
B15 | 0.05 nM
B16 | 6.62 nM
B17 | 10.6 nM
B18 | 10.6 nM

target: T1, human melanocortin 4 receptor; assay: competition with 125-NDP-α-MSH, BHK human MC4R membranes
Method in brief: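 Competition binding used membranes from BHK cells stably expressing human MC4R with ¹²⁵I-NDP-α-MSH (apx. […] final), compound at 1 μM–0.001 nM. Incubation was 2 h at 25 °C in HEPES pH 7.0 buffer with CaCl₂, MgSO₄, EGTA, Tween 20 and 0.1% HSA or ovalbumin. Filter-bound radioactivity was fitted by non-linear regression.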

Binder | Ki
B1 | 0.06 nM
B2 | 0.17 nM
B3 | 0.6 nM
B4 | 0.03 nM
B5 | 0.03 nM
B6 | 8.87 nM
B7 | 0.07 nM
B8 | 0.04 nM
B9 | 0.07 nM
B10 | 0.03 nM
B11 | 0.51 nM
B12 | 0.3 nM
B13 | 0.25 nM
B14 | 0.03 nM
B15 | 0.06 nM
B16 | 43 nM
B17 | 39.1 nM
B18 | 42.8 nM
